Targets include AHNAK1, Q09666; DLG1_3, Q12959; DLG2_3, Q15700; HTRA1, Q92743; IL16_3, Q14005; MAGI2_5, Q86UL8; MAST1, Q9Y2H9; NHERF4_2, Q86UT5; NOS1, P29475; PICK1, Q9NRD5; PTPN3, P26045; TJP1_2, Q07157.
Holding throughout (assay): holdup assay
Holding throughout (design): key: below the threshold = too weak to quantify, mostly under pKd 3.1 to 4
What all share (settings): plain residues with an end cap or a label only (N-terminal biotin on a linker: ado-ado)

Another experiment concerns the target T1, APBA3_1, O96018.
T1 sequence (O96018 389-490, limits assumed, looked up): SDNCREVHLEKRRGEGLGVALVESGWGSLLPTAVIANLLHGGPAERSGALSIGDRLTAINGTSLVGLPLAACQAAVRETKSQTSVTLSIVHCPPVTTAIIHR

Another experiment has as its target T2, ARHGEF11, O15085.
T2 sequence (O15085 42-136, limits assumed, looked up): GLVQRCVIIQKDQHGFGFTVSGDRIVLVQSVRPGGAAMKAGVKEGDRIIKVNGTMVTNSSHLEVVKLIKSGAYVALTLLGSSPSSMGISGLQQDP

The target of a further experiment is T3, DFNB31_3, Q9P202.
T3 sequence (Q9P202 811-907, limits assumed, looked up): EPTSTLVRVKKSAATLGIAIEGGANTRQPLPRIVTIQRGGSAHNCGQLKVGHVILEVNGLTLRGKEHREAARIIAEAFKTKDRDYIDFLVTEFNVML

The target in another experiment is T4, DLG3_1, Q92796.
T4 sequence (Q92796 125-227, limits assumed, looked up): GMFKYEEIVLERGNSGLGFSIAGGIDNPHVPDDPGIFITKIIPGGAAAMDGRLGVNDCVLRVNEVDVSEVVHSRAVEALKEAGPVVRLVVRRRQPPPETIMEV

Another experiment concerns the target T5, LIN7A, O14910.
T5 sequence (O14910 103-200, limits assumed, looked up): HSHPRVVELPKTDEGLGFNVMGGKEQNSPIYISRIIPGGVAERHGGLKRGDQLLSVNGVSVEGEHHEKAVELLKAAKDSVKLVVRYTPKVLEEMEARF

Another experiment deals with T6, LRRC7, Q96NW7.
T6 sequence (Q96NW7 1440-1537, limits assumed, looked up): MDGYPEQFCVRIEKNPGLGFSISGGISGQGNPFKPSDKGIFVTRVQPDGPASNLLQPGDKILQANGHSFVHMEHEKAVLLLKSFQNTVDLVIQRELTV

The target in another experiment is T7, MPDZ_10, O75970.
T7 sequence (O75970 1624-1722, limits assumed, looked up): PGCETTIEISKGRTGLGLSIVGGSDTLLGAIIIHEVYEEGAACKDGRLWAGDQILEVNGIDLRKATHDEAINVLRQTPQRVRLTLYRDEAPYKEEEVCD

The target in another experiment is T8, MPDZ_12, O75970.
T8 sequence (O75970 1857-1958, limits assumed, looked up): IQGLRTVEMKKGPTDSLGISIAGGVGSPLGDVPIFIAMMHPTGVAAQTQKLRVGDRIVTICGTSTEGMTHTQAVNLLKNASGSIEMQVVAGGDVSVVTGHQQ

The target in another experiment is T9, MPDZ_5, O75970.
T9 sequence (O75970 695-796, limits assumed, looked up): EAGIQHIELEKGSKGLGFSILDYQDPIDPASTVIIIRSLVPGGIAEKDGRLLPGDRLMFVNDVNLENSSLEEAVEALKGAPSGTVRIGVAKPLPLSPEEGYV

The next experiment addresses T10, NHERF3_4, Q5T2W1.
T10 sequence (Q5T2W1 373-468, limits assumed, looked up): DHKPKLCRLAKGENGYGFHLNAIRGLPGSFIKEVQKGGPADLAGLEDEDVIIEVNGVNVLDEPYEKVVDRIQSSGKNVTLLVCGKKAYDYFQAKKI

The next experiment deals with T11, PDZRN3_1, Q9UPQ7.
T11 sequence (Q9UPQ7 244-349, limits assumed, looked up): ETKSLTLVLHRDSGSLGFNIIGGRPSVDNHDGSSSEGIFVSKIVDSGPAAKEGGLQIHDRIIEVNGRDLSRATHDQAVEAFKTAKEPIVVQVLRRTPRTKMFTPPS

A further experiment has as its target T12, TX1BP3, O14907.
T12 sequence (O14907 10-122, limits assumed, looked up): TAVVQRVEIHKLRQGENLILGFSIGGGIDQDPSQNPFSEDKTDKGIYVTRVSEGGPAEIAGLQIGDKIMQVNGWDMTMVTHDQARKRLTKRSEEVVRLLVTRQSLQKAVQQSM

Sequence of DLG1_3, Q12959 (Q12959 457-571): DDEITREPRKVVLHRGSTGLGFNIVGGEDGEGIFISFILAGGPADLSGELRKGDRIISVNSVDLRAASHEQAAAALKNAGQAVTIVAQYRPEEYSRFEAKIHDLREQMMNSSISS
Sequence of HTRA1, Q92743 (Q92743 360-477): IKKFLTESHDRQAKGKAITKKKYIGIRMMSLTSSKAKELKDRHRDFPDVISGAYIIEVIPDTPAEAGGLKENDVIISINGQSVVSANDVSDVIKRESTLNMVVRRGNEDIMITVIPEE
Sequence of IL16_3, Q14005 (Q14005 1107-1207): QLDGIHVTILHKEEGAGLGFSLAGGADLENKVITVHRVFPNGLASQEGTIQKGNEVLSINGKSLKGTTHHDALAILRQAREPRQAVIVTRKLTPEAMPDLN
Sequence of TJP1_2, Q07157 (Q07157 181-274): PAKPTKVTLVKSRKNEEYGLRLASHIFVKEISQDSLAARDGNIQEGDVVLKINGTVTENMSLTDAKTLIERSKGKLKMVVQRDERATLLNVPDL
Sequence of NOS1, P29475 (P29475 9-101): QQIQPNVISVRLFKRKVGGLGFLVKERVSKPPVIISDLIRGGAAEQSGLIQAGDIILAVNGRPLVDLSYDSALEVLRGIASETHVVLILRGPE
Sequence of NHERF4_2, Q86UT5 (Q86UT5 220-308): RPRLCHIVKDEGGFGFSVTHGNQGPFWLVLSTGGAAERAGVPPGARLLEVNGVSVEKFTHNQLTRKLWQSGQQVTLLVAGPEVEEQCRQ
Sequence of PTPN3, P26045 (P26045 505-587): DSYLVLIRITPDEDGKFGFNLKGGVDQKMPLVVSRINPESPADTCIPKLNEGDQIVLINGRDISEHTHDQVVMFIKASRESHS
Sequence of AHNAK1, Q09666 (Q09666 4-100): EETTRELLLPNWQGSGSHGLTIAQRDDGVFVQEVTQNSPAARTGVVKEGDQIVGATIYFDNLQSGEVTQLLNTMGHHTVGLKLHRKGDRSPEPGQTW
Sequence of PICK1, Q9NRD5 (Q9NRD5 17-115): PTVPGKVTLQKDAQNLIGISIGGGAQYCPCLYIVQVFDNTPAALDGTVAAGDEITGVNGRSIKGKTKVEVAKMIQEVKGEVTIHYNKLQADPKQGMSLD
Sequence of MAST1, Q9Y2H9 (Q9Y2H9 962-1065): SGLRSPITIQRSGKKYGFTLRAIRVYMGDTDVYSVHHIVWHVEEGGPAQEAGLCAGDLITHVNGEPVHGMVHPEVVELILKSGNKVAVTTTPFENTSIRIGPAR
Sequence of MAGI2_5, Q86UL8 (Q86UL8 915-1017): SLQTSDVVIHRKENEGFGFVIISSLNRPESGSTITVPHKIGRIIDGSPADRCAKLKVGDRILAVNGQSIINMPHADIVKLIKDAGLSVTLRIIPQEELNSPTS

B1: SLC22A11, Q9NSA0 (peptide)
chain: EAVTVESTSL
For the molecule B1, the pKd entry with AHNAK1, Q09666 was “below the threshold”; with APBA3_1, O96018, “below the threshold”; in the experiment with ARHGEF11, O15085, 4.95; with DFNB31_3, Q9P202 it was “below the threshold”; with DLG1_3, Q12959 it was “below the threshold”; in the experiment with DLG2_3, Q15700, “below the threshold”. Besides, the negative logarithm of the Kd (pKd) entry was “below the threshold” with DLG3_1, Q92796; 3.92 with HTRA1, Q92743; “below the threshold” with IL16_3, Q14005; “below the threshold” in the experiment with LIN7A, O14910; “below the threshold” with LRRC7, Q96NW7; 4.45 with MAGI2_5, Q86UL8. The pKd was 5.07 in the experiment with MAST1, Q9Y2H9; “below the threshold” with MPDZ_10, O75970; “below the threshold” with MPDZ_12, O75970; “below the threshold” in the experiment with MPDZ_5, O75970; 4.92 with NHERF3_4, Q5T2W1; “below the threshold” with NHERF4_2, Q86UT5. The negative logarithm of the Kd (pKd) with NOS1, P29475 is 3.5; in the experiment with PDZRN3_1, Q9UPQ7 it was 4.24; with PICK1, Q9NRD5 it was “below the threshold”; with PTPN3, P26045, 4.62; in the experiment with TJP1_2, Q07157 it was “below the threshold”; with TX1BP3, O14907, 4.25.

B2: TYRO3, Q06418 (peptide)
chain: QQGLLPHSSC
As for B2, the pKd result in the experiment with AHNAK1, Q09666 is “below the threshold”; in the experiment with APBA3_1, O96018, “below the threshold”; in the experiment with ARHGEF11, O15085, 3.55; in the experiment with DFNB31_3, Q9P202, 4.21; in the experiment with DLG1_3, Q12959, “below the threshold”; in the experiment with DLG2_3, Q15700 it was “below the threshold”. The pKd result is “below the threshold” with DLG3_1, Q92796; “below the threshold” in the experiment with HTRA1, Q92743; “below the threshold” with IL16_3, Q14005; “below the threshold” with LIN7A, O14910; “below the threshold” with LRRC7, Q96NW7; “below the threshold” with MAGI2_5, Q86UL8. Besides, the pKd result with MAST1, Q9Y2H9 was “below the threshold”; with MPDZ_10, O75970 it was 3.72; with MPDZ_12, O75970, 3.6; with MPDZ_5, O75970, “below the threshold”; with NHERF3_4, Q5T2W1, “below the threshold”; in the experiment with NHERF4_2, Q86UT5 it was “below the threshold”. The pKd entry in the experiment with NOS1, P29475 is “below the threshold”; with PDZRN3_1, Q9UPQ7, “below the threshold”; in the experiment with PICK1, Q9NRD5 it was “below the threshold”; with PTPN3, P26045, “below the threshold”; with TJP1_2, Q07157, “below the threshold”; in the experiment with TX1BP3, O14907, “below the threshold”.

B3: KCNB1, Q14721 (peptide)
chain: AHGSTRDQSI
Regarding B3, the negative-log Kd (pKd) result in the experiment with AHNAK1, Q09666 was “below the threshold”; with APBA3_1, O96018, “below the threshold”; in the experiment with ARHGEF11, O15085, 4.4; in the experiment with DFNB31_3, Q9P202, 3.77; in the experiment with DLG1_3, Q12959 it was 3.93; with DLG2_3, Q15700 it was 3.82. For the same molecule, the pKd was 3.68 with DLG3_1, Q92796; 3.53 with HTRA1, Q92743; “below the threshold” in the experiment with IL16_3, Q14005; “below the threshold” with LIN7A, O14910; “below the threshold” with LRRC7, Q96NW7; “below the threshold” with MAGI2_5, Q86UL8. Further, the pKd with MAST1, Q9Y2H9 is 3.69; in the experiment with MPDZ_10, O75970, “below the threshold”; with MPDZ_12, O75970, 3.62; with MPDZ_5, O75970 it was “below the threshold”; with NHERF3_4, Q5T2W1, “below the threshold”; with NHERF4_2, Q86UT5, “below the threshold”. The pKd result was “below the threshold” with NOS1, P29475; “below the threshold” with PDZRN3_1, Q9UPQ7; 4.15 with PICK1, Q9NRD5; 4.07 with PTPN3, P26045; “below the threshold” with TJP1_2, Q07157; 4.1 with TX1BP3, O14907.

B4: IGSF5, Q9NSI5 (peptide)
chain: PEKVSNTTVV
Turning to B4, the negative logarithm of the Kd (pKd) entry with AHNAK1, Q09666 is “below the threshold”; with APBA3_1, O96018 it was “below the threshold”; with ARHGEF11, O15085, 4.24; with DFNB31_3, Q9P202 it was 3.83; with DLG1_3, Q12959, “below the threshold”; in the experiment with DLG2_3, Q15700 it was 3.83. Further, the pKd in the experiment with DLG3_1, Q92796 was 3.83; with HTRA1, Q92743, 4.49; with IL16_3, Q14005 it was “below the threshold”; in the experiment with LIN7A, O14910 it was “below the threshold”; with LRRC7, Q96NW7, “below the threshold”; with MAGI2_5, Q86UL8, 3.64. Moreover, the pKd was 4.53 in the experiment with MAST1, Q9Y2H9; “below the threshold” with MPDZ_10, O75970; “below the threshold” with MPDZ_12, O75970; “below the threshold” with MPDZ_5, O75970; “below the threshold” in the experiment with NHERF3_4, Q5T2W1; “below the threshold” in the experiment with NHERF4_2, Q86UT5. In addition, the pKd is 3.64 with NOS1, P29475; “below the threshold” with PDZRN3_1, Q9UPQ7; 4.15 with PICK1, Q9NRD5; “below the threshold” in the experiment with PTPN3, P26045; “below the threshold” with TJP1_2, Q07157; “below the threshold” with TX1BP3, O14907.

The term pKd denotes −log10 of the Kd, conventionally taken in molar units.
